Results reported in publication PMC9433394.

Biological target: chicken skeletal muscle actin (chicken) (UniProt P68139)
Test: SEC; 20 uM chicken G-actin mixed with 2DGel at ratios 1:1, 1:2 and 2:1 in 1X KMI-Ca buffer (50 mM KCl, 10 mM imidazole, 1 mM MgCl2, 1 mM CaCl2), 30 min, Enrich SEC 650; peak fractions analysed by SDS-PAGE

stoichiometry N (actin per Heim2DGel)	stoichiometry N (actin per MKD1-2DGel)	Substance
1	–	Heim2DGel (two-domain gelsolin of Heimdallarchaeota LC_3) (natural protein)
–	2	MKD1-2DGel (two-domain gelsolin of Candidatus Prometheoarchaeum syntrophicum MK-D1) (natural protein)
